# Measurements reported in US20180264072A1 (PARIS SCIENCES ET LETTRES QUARTER LATIN, published 2018).
# B1: IpaA 483-633 (A483) (other)
# chain: GDTYLTRETIFEASKKVTNSLSNLISLIGTKSGTQERELQEKSKDITKSTTEHRINNKLKVTDANIRNYVTETNADTIDKNHAIYEKAKEVSSALSKVLSKIDDTSAELLTDDISDLKNNNDITAENNNIYKAAKDVTTSLSKVLKNINKD
# B2: IpaA 524-633 (A524) (other)
# chain: KSKDITKSTTEHRINNKLKVTDANIRNYVTETNADTIDKNHAIYEKAKEVSSALSKVLSKIDDTSAELLTDDISDLKNNNDITAENNNIYKAAKDVTTSLSKVLKNINKD
# B3: vinculin D1 domain (HVD1) (other)
# chain: MPVFHTRTIESILEPVAQQISHLVIMHEEGEVDGKAIPDLTAPVAAVQAAVSNLVRVGKETVQTTEDQILKRDMPPAFIKVENACTKLVQAAQMLQSDPYSVPARDYLIDGSRGILSGTSDLLLTFDEAEVRKIIRVCKGILEYLTVAEVVETMEDLVTYTKNLGPGMTKMAKMIDERQQELTHQEHRVMLVNSMNTVKELLPVLISAMKIFVTTKNSKNQGIEEALKNRNFTVEKMSAEINEIIRVLQLTSWDEDAW
# notes: also called D1 domain of vinculin
# B4: full-length human vinculin (HV) (other)
# chain: MPVFHTRTIESILEPVAQQISHLVIMHEEGEVDGKAIPDLTAPVAAVQAAVSNLVRVGKETVQTTEDQILKRDMPPAFIKVENACTKLVQAAQMLQSDPYSVPARDYLIDGSRGILSGTSDLLLTFDEAEVRKIIRVCKGILEYLTVAEVVETMEDLVTYTKNLGPGMTKMAKMIDERQQELTHQEHRVMLVNSMNTVKELLPVLISAMKIFVTTKNSKNQGIEEALKNRNFTVEKMSAEINEIIRVLQLTSWDEDAWASKDTEAMKRALASIDSKLNQAKGWLRDPSASPGDAGEQAIRQILDEAGKVGELCAGKERREILGTCKMLGQMTDQVADLRARGQGSSPVAMQKAQQVSQGLDVLTAKVENAARKLEAMTNSKQSIAKKIDAAQNWLADPNGGPEGEEQIRGALAEARKIAELCDDPKERDDILRSLGEISALTSKLADLRRQGKGDSPEARALAKQVATALQNLQTKTNRAVANSRPAKAAVHLEGKIEQAQRWIDNPTVDDRGVGQAAIRGLVAEGHRLANVMMGPYRQDLLAKCDRVDQLTAQLADLAARGEGESPQARALASQLQDSLKDLKARMQEAMTQEVSDVFSDTTTPIKLLAVAATAPPDAPNREEVFDERAANFENHSGKLGATAEKAAAVGTANKSTVEGIQASVKTARELTPQVVSAARILLRNPGNQAAYEHFETMKNQWIDNVEKMTGLVDEAIDTKSLLDASEEAIKKDLDKCKVAMANIQPQMLVAGATSIARRANRILLVAKREVENSEDPKFREAVKAASDELSKTISPMVMDAKAVAGNISDPGLQKSFLDSGYRILGAVAKVREAFQPQEPDFPPPPPDLEQLRLTDELAPPKPPLPEGEVPPPRPPPPEEKDEEFPEQKAGEVINQPMMMAARQLHDEARKWSSKGNDIIAAAKRMALLMAEMSRLVRGGSGTKRALIQCAKDIAKASDEVTRLAKEVAKQCTDKRIRTNLLQVCERIPTISTQLKILSTVKATMLGRTNISDEESEQATEMLVHNAQNLMQSVKETVREAEAASIKIRTDAGFTLRWVRKTPWYQ
# Key:
# [1] = biological target: B4; test: solid phase (ELISA) assay, HV coated, A483 in solution
# [2] = biological target: B3; test: size exclusion chromatography; stoichiometry listed for the complex
# [3] = biological target: B3; test: solid phase (ELISA) assay, HVD1 coated, A483 in solution
# [4] = biological target: B4; test: solid phase (ELISA) assay, HV coated, A524 in solution
# talin H1-H4 = biological target: T1, talin H1-H4; test: size exclusion chromatography; stoichiometry listed for the complex
# T1 construct: domain: H1-H4; also called TlnH1-H4; T1nH1-H4
# T1 sequence (P26039 482-636): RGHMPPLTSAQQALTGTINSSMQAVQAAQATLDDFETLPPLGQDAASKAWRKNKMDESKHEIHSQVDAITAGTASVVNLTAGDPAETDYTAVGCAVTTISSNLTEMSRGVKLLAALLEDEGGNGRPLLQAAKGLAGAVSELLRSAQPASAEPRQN
# IpaA 483-633 (A483) = biological target: B1; test: solid phase (ELISA) assay, A483 coated, HV in solution
# IpaA 524-633 (A524) = biological target: B2; test: solid phase (ELISA) assay, A524 coated, HV in solution
binder,measurement,setting,value
B1,EC50 (read off the curve),[1],200 to 300 pM
same,stoichiometry,[2],1 molar ratio of the complex (1:1)
same,EC50 (read off the curve),[3],~800 pM
B2,EC50 (read off the curve),[4],~300 pM
B3,stoichiometry,talin H1-H4,1 molar ratio of the complex (1:1)
B4,EC50 (read off the curve),IpaA 483-633 (A483),~5000 pM
same,EC50 (read off the curve),IpaA 524-633 (A524),~4000 pM
